Data taken from patent US7063946B2, “Methods, reagents, kits and apparatus for protein function analysis” (Meso Scale Technologies, LLC., priority 2001, dated 2006).

Legend:
[1] = molecular target: T1, IkBa peptide [SEQ ID No. 1] (Homo sapiens, UniProt P25963); test: Phosphopeptide binding assay, peptide-BSA coated IPR plate
T1 construct: two phosphoserines in the DSGLDS motif (chemical modification); purchased New England Peptide, Fitchburg Mass; host or cells: chemical synthesis
Source text: (§1) A phosphopeptide derived from the IkBa degradation motif (SEQ ID NO: 1) and a phosphopeptide derived from c-Myc (SEQ ID NO: 4) were chemically synthesized (New England Peptide, Fitchburg Mass.) with the following sequences respectively:
A maleimide pre-activated BSA (Pierce, Pittsburgh Pa.), which contains estimated 17 active maleimide groups on the protein surface, was used as the protein carrier, and was supplied as a lyophilized preparation. Coupling of the IkBa peptide (SEQ ID NO: 1) to the pre-activated BSA was carried out with 2 mg BSA (30 nmol) and 17 equivalents of the 25 residue phosphopeptide in 400 μl PBS. The reaction was terminated with 2 mM […] after incubation at room temperature for 30 minutes. The peptide:BSA conjugate was then purified on PD-10 gel filtration column to remove uncoupled peptide and analyzed with SDS PAGE to monitor the coupling reaction. […] After coupling and purification, the column fractions containing the peptide:BSA conjugates were pooled and the protein concentration of the pooled samples was determined by BCA assay (Pierce, Pittsburgh Pa.). NaN3, (0.02%) was added to the final peptide:BSA conjugate sample for long term storage at 4° C. […]
Two βTRCP genes, βTRCP1 and βTRCP2, are present in the human genome on chromosome 5 and 10, respectively. […] The ECL signals were measured using an imaging plate reader (IPR).

[2] = molecular target: T2, c-Myc peptide [SEQ ID No. 4] (Homo sapiens, UniProt P01106); test: as above
T2 construct: phosphothreonine (T58) and phosphoserine (S62) (chemical modification); purchased New England Peptide, Fitchburg Mass; host or cells: chemical synthesis
T2 sequence (P01106 with tags, fused parts or gaps limits assumed): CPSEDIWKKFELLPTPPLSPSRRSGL
Description: as §1
To prepare IPR plates for use in the assay, approximately 2.4 pmol BSA, 1.2 pmole IκBα-24pp peptide-BSA conjugate or 1.2 pmole of Myc-p58Tp62S peptide-BSA conjugate in 2.5 μl were deposited on the carbon working electrode surface in a single well of a 96-well plate. At this stage, the plates were dried then used or stored under desiccated condition. A few hours prior to usage, the plates were rehydrated and blocked with 3% BSA, in PBS.
Two βTRCP genes, βTRCP1 and βTRCP2, are present in the human genome on […], respectively. The coding sequence of these two genes shares over 90% identity and several full-length cDNAs of which are available as EST clones from Incyte (Palo Alto, Calif.) IMAGE #3491843 and 4237375. Also included were three other non specific EST clones as controls (Incyte, Palo alto, Calif.). […] These DNAs were used to produce the βTRCP protein and proteins encoded by the other DNAs as described in the Example 7. Proteins were transferred into wells of the peptide-coated and BSA-blocked IPR plates. […] The ECL signals were measured using an imaging plate reader (IPR).

IkBa-24pp (SEQ ID NO: 1) = molecular target: T3, IkBa-24pp (SEQ ID NO: 1) (Homo sapiens, UniProt P25963); test: Single-well 4-spot assay for multiple peptide-protein interactions; assay type: binding; settings: for ECL signal, spot 1 IkBa-24pp: 4-spot plate
T3 construct: two phosphoserines in the DSGLDS motif (chemical modification); purchased New England Peptide, Fitchburg Mass; host or cells: chemical synthesis
T3 sequence (P25963 with tags, fused parts or gaps limits assumed): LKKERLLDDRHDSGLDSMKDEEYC
Source text: (§2) Four phosphopeptides and their cognate binding proteins (Table 14) were selected for an integrated assay of multiple peptide-protein interaction in 4-spot Multi-Array plates. The IkBa-24pp peptide and its binding protein, βTRCP, are described in Example 10. The remaining peptides are derived from the carboxyl terminus of the EGF receptor. These phosphotyrosine containing peptides are recognized by different adaptor or effecter proteins of the receptor tyrosine kinase signaling pathway.
These four peptides were coupled to BSA carrier protein through cystine residue. After purification on PD-10 gel filtration columns, the peptide-BSA conjugates were then deposited on the assay domains of a 4-spot multi-array IPR plate (i.e., in one of the four exposed regions of working electrode defined by the dielectric layer) with an automated micro-dispensing system (Bio-Dot Dispenser, Bio-Dot, Irvine Calif.). Typically about 120 fmole of peptide:BSA conjugate in 0.25 μl was deposited on each spot of a 4-spot multi-array IPR plate. These plates are dried then used or stored under desiccated conditions. A few hours prior to usage the plates were rehydrated and blocked with 3% BSA in PBS. EST clones encoding βTRCP1 (3491843), βTRCP2 (4237375), mCBP (3872466) Grb2 (4398016) and PLCγ (4419252) (Incyte, Palo Alto, Calif.), were isolated using a QIA-prep column (QIAGEN, Los Angeles, Calif.) and used to program protein expression in a Quick coupled SP6 TnT reaction supplemented with Transcend biotin-tRNA label following the manufactures protocol (Promega, Madison Wis.). The in vitro translated and biotin-labeled proteins were then assayed in the 4-spot multi-array IPR plates under conditions described in Example 10. […] By contrast spots 2–4 in the same wells gave low ECL signals. Thus, in this assay format, each peptide not only serves as the capture agent for assaying specific interaction with its binding protein, but also at the same time serves as a control for other peptide-protein interaction to be determined in the same well. […]

[3] = molecular target: T4, EGFR-pY1068 (SEQ ID NO: 7) (Homo sapiens, UniProt P00533); test: as above; assay type: binding; settings: 4-spot plate
T4 construct: phosphotyrosine at Tyr1068 (chemical modification); purchased New England Peptide, Fitchburg Mass; host or cells: chemical synthesis
Source text: as §2, with “The remaining peptides are derived from the carboxyl terminus of the EGF receptor.” left out
(§3) These four peptides were coupled to BSA carrier protein through cystine residue. After purification on PD-10 gel filtration columns, the peptide-BSA conjugates were then deposited on the assay domains of a 4-spot multi-array IPR plate (i.e., in one of the four exposed regions of working electrode defined by the dielectric layer) with an automated micro-dispensing system (Bio-Dot Dispenser, Bio-Dot, Irvine Calif.). […] These plates are dried then used or stored under desiccated conditions. A few hours prior to usage the plates were rehydrated and blocked with 3% BSA in PBS. […] The in vitro translated and biotin-labeled proteins were then assayed in the 4-spot multi-array IPR plates under conditions described in Example 10.

[4] = molecular target: T5, EGFR-pY1148 (SEQ ID NO: 9) (Homo sapiens, UniProt P00533); test: as above; assay type: binding; settings: 4-spot plate
T5 construct: phosphotyrosine at Tyr1148 (chemical modification); purchased New England Peptide, Fitchburg Mass; host or cells: chemical synthesis
Source text: as §2, with “The remaining peptides are derived from the carboxyl terminus of the EGF receptor.” left out
as §3

| Average ECL signal, IkBa peptide [SEQ ID No. 1] [1] | Average ECL signal, c-Myc peptide [SEQ ID No. 4] [2] | ECL signal, spot 1 IkBa-24pp (IkBa-24pp (SEQ ID NO: 1)) | fold higher ECL signal from spot 1 than with TnT mixtures containing no exogenous DNA (IkBa-24pp (SEQ ID NO: 1); spot 1 (IkBa-24pp-BSA conjugate)) | ECL signal, spot 3 EGFR-pY1068 [3] | ECL signal, spot 2 EGFR-pY1148 [4] | Substance |
| --- | --- | --- | --- | --- | --- | --- |
| 40879 | 2118 | 2466 | 100 fold | 24 | 36 | 3491843: IMAGE clone protein: βTRCP1 [compound 3491843] |
| 371 | 351 | 446 | – | 126 | 278 | 3872466: IMAGE clone protein: mCBP [compound 3872466] |
